{"source": "patent US20080280828A1", "about": "(NATURAL ENVIRONMENT RESEARCH COUNCIL, published 2008)", "binders": {"B1": {"name": "recombinant IGBPMA (rIGBPMA), N-terminal 26 amino acid truncated, C-terminal 6-His-tag, expressed in (other)", "chain": "YEVYTGRGVTITVDNTQYEIPADLEKIFQKPKGFSVGSLLVALQEKGIPVNVDEKTGVILGITIDKVRVPFPVSIDLRFKLDNQIYLIPRDLAKLITVLEKKGMPSKILFILYTRYGVVPVRDSNGIVVAISFNGKQFKVKPEPLTAVVILGQKFILPRDTRKMVEFVHSKQSHPEIGFIFLKALKSAGFMLINDDDGAMRSIQKGAQIIKLGFEIRIQVIYGKTTYHVPKDLMRLVKDVRSLGPQEIQSVMKQLKAFDVQVKKEGSKLTILFNSVRYEVDLKSGNVKGHHHHHH", "notes": "also called soluble rIGBPMA; Clone No. F6"}}, "key": {"[1]": {"biological_target": "T1, human IgG Fc fragment (ICN) (human)", "T1 construct": "domain: Fc fragment; also called human Fc fragment; Fc (human) fragment", "assay": "SPR (BIAcore 2000), human Fc immobilised, rIGBPMA 1 mg/ml as analyte"}, "[2]": {"biological_target": "human IgE (Serotech) (human)", "assay": "SPR (BIAcore 2000), human IgE against guinea pig IgG on the same chip"}}, "data": [{"binder": "B1", "values": [{"measurement": "fold of binding over non-specific binding (BSA, F(ab)2)", "setting": "[1]", "value": 2, "unit": "fold"}, {"measurement": "fold of binding signal against IgG", "setting": "[2]", "value": 2, "unit": "fold"}]}]}
